Results as given in patent publication US20220275049A1, “ANTIGENIC POLYPEPTIDES AND METHODS OF USE THEREOF” (AGENUS INC., priority 2019, published 2022).
Square brackets hold non-standard residues; d marks the D form. Ends that are not written are not given here. pT = C[C@@H](OP(=O)(O)O)[C@H](N)C(=O)O; pS = N[C@@H](COP(=O)(O)O)C(=O)O

Experiments:
Test in all cases: AlphaScreen, peptide titrated on biotinylated HLA + b2m
Details in all cases: remark: other sources report otherwise
[1] = molecular target: biotinylated HLA-B*07:02 with β2m (human)
[2] = molecular target: biotinylated HLA-A*02:01 with β2m (human)
[3] = molecular target: biotinylated HLA-C*07:01 with β2m (human)

Kd [1] [nM] | Kd [2] [nM] | Kd [3] [nM] | Binder
34.1 | – | – | GPRSA[pS]LLSL [GPRSAsLLSL]
– | 53.9 | – | SLFGG[pS]VKL [SLFGGsVKL]
– | 14.8 | – | RQA[pS]IELPSMAV [RQAsIELPSMAV]
91 | – | – | TPR[pS]PPLGLI [TPRsPPLGLI]
117 | – | – | RPT[pS]RLNRL [RPTsRLNRL]
– | 20.4 | – | RQA[pS]IELPSM [RQAsIELPSM]
– | 260 | – | KLIDRTE[pS]L [KLIDRTEsL]
– | 431 | – | GLLG[pS]PVRA [GLLGsPVRA]
218 | – | – | RPRPV[pS]PSSL [RPRPVsPSSL]
– | 150 | – | VLL[pS]PVPEL [VLLsPVPEL]
– | 157 | 380 | RTL[pS]HISEA [RTLsHISEA]
– | 40.5 | – | VLY[pS]PQMAL [VLYsPQMAL]
551 | – | – | RVR[pS]PTRSP [RVRsPTRSP]
199 | – | – | EPR[pS]PSHSM [EPRsPSHSM]
199 | – | – | QPR[pT]PSPLVL [QPRtPSPLVL]
50 | 500 | – | GPRSA[pS]LL[pS]L [GPRSAsLLsL]
369 | – | – | RPS[pS]LPDL [RPSsLPDL]
47.1 | – | – | GPRSASLL[pS]L [GPRSASLLsL]
75.5 | – | – | TPR[pS]PPLGL [TPRsPPLGL]
227 | 242 | – | RVA[pS]PTSGV [RVAsPTSGV]
– | 701 | – | SMTR[pS]PPRV [SMTRsPPRV]
